Data on two molecules can be found in publication PMC4150762, “The DEAD-box helicase Ded1 from yeast is an mRNP cap-associated protein that shuttles between the cytoplasm and nucleus” (Nucleic Acids Research, 2014).

The target in assay [1] is T1, Ded1-His6 (S. cerevisiae, UniProt P06634 1-604).
T1 construct: Ded1 of S. cerevisiae, recombinant, expressed from pET22b; Printed name Ded1-His6; source: E. coli (pET22b), purified on nickel-agarose
The assay can be described thus: pull-down; Ded1 bound to protein A Sepharose beads crosslinked to IgG against Ded1, incubated with single purified proteins, washed, eluted; Coomassie-stained SDS PAGE, western blot for Pab1 and Cbp80; same results with or without RNase I or AMP-PNP. The conditions noted are these: both partners purified. In general terms: A western blot detects proteins with antibodies after separation by electrophoresis.

The target in assay [2] is T1, Ded1-His6. Briefly: cell-based or functional assay.
Assay [3] addresses T2, GST-NAB2-HIS6 (S. cerevisiae, UniProt P32505 1-525).
T2 construct: source: E. coli, purified on nickel-agarose
T2 sequence (looked up): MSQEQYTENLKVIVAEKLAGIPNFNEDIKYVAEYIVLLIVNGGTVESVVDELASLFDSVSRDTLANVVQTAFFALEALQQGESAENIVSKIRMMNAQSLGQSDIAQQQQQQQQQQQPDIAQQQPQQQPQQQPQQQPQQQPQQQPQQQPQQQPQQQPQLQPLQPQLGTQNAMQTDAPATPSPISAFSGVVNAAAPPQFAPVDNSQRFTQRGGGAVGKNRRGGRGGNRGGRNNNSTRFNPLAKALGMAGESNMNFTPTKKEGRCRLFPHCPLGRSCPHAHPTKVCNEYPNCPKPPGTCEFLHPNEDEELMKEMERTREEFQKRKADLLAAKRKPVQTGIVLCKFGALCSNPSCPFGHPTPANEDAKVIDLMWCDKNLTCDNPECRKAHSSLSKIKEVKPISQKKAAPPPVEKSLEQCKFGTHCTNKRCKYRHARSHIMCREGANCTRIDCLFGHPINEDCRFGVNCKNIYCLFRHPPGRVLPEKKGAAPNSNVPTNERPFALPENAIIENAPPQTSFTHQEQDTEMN
The assay can be described thus: pull-down; 7-methyl-GTP Sepharose beads loaded with 5 μg purified eIF4E or Cbp20, 5 μg of the purified proteins added with 50 U RNase I, 90 min on ice, TpB buffer (20 mM HEPES pH 7.9, 100 mM KCl, 2 mM MgCl2, 2 mM DTT), eluted with 1 mM 7-methyl-GTP; Coomassie-stained SDS PAGE. The conditions noted are these: both partners purified.

T1 sequence (P06634 whole entry): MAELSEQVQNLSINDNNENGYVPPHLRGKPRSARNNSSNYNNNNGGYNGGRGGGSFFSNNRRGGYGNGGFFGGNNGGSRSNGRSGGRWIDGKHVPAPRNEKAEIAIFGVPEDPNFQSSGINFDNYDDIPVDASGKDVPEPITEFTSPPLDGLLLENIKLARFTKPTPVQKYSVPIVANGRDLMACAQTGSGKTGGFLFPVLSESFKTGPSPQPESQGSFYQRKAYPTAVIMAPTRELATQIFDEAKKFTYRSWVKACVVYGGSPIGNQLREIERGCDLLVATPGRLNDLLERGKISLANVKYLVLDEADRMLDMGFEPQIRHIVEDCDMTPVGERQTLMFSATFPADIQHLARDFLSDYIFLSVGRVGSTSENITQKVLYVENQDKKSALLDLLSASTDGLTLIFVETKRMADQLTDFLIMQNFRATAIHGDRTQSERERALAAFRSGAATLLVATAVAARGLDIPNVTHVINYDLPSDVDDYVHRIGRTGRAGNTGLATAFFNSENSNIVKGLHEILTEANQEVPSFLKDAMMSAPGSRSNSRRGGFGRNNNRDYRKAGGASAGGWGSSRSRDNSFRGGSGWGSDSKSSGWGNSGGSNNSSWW

B1: eIF4G-His6 fragment 387–952 (domain or fragment, S. cerevisiae, UniProt P39935 387-952, looked up)
chain: AGTKIGLEAEIETTTDETDDGTNTVSHILNVLKDATPIEDVFSFNYPEGIEGPDIKYKKEHVKYTYGPTFLLQFKDKLNVKADAEWVQSTASKIVIPPGMGRGNRSRDSGRFGNNSSRGHDFRNTSVRNMDDRANSRTSSKRRSKRMNDDRRSNRSYTSRRDRERGSYRNEEKREDDKPKEEVAPLVPSANRWVPKFKSKKTEKKLAPDGKTELLDKDEVERKMKSLLNKLTLEMFDAISSEILAIANISVWETNGETLKAVIEQIFLKACDEPHWSSMYAQLCGKVVKELNPDITDETNEGKTGPKLVLHYLVARCHAEFDKGWTDKLPTNEDGTPLEPEMMSEEYYAAASAKRRGLGLVRFIGFLYRLNLLTGKMMFECFRRLMKDLTDSPSEETLESVVELLNTVGEQFETDSFRTGQATLEGSQLLDSLFGILDNIIQTAKISSRIKFKLIDIKELRHDKNWNSDKKDNGPKTIQQIHEEEERQRQLKNNSRSNSRRTNNSSNRHSFRRDAPPASKDSFITTRTYSQRNSQRAPPPKEEPAAPTSTATNMFSALMGESDDEE
notes: Not among the constructs of the methods
Turning to B1, in assay [1], the binding result is “binds”.

B2: His6-Cbp20 (natural protein, S. cerevisiae, UniProt Q08920 1-208, looked up)
chain: MSLEEFDEVKYDHSTKRLDTPSRYLLRKARRNPNGLQELRESMKSSTIYVGNLSFYTSEEQIYELFSKCGTIKRIIMGLDRFKFTPCGFCFIIYSCPDEALNALKYLSDTKLDEKTITIDLDPGFEDGRQFGRGKSGGQVSDELRFDFDASRGGFAIPFAERVGVPHSRFDNSSSQSNTNNYIPPPDAMGTFRPGFDEEREDDNYVPQ
notes: Cbp20 of S. cerevisiae subcloned from pRSETC20 into the NdeI-BamHI sites of pET19b; Printed name His6-Cbp20; also called Cpb20; source: E. coli (pET19b), purified on nickel-agarose
B2: in assay [2], the “RNA-dependent ATPase activity, % Ded1” value stood at 97%. Moreover, the binding result in assay [3] is on record as “binds”.
